Source: patent publication US11584938B2, “Plant EPSPS mutant containing L195P and S247G mutations and encoding gene and use thereof” (GEVOTO LLC, priority 2017, dated 2023)
Positions count from the first letter of the chain named.

Tested on: double knockout E. coli (EPSPS defective E. coli, EDCE)
Test: growth of EPSPS defective E. coli transformed by the EPSPS gene in M9 culture media containing different glyphosate concentrations
Type: cell-based, E. coli DH5α
Text: A method for detecting the glyphosate resistance of the soybean EPSPS mutant G1 provided in Example 1 and the soybean EPSPS mutant G3 provided in Example 2 is as follows:
according to the sequence of the nucleic acid molecule provided in the example, synthesizing the encoding gene that encodes the soybean EPSPS mutant G1 or G3 using a chemical synthesis method, introducing enzyme sites (Pac1 and Sbf1) at two ends thereof, connecting to an expression vector (for example, a pADV5 vector, the structure of which is as shown in FIG. 15) that has undergone the same restriction enzyme digestion treatment under the action of ligase after restriction enzyme digestion, then transforming double knockout E. coli, picking positive colonies after verification, inoculating the positive colonies to M9 culture media containing different glyphosate concentrations for growth, and observing the growth situation of the E. coli.
The wild-type soybean EPSPS (with an amino acid sequence represented by SEQ ID NO: 2 and an encoding gene sequence represented by SEQ ID NO: 1) and the soybean EPSPS mutant G2 (with an amino acid sequence represented by SEQ ID NO: 6, and a corresponding encoding gene sequence represented by SEQ ID NO: 5) merely containing the mutation P114(101)S were taken as controls.
In the above, the M9 basal culture medium can be prepared by the following method:
5×M9 salt solution: 6.78 g of Na2HPO4, 3.0 g of KH2PO4, 0.5 g of NaCl, and 1.0 g of NH4Cl were weighed, added with ddH2O to 200 ml, and subjected to high-temperature and high-pressure sterilization treatment;
20% glucose: 20 g of glucose was weighed, added with 80 ml of ddH2O for dissolving, diluted to 100 ml, and subjected to filtration and sterilization treatment;
1.0 M MgSO4: 24.6 g of MgSO4-7H2O was weighed, dissolved with 80 ml of ddH2O, diluted to 100 ml, and subjected to sterilization treatment;
1.0 M CaCl2: 11.1 g of CaCl2 was weighed, dissolved with 80 ml of ddH2O, diluted to 100 ml, and subjected to sterilization treatment; and
1000 ml of the M9 basal culture media were prepared by adding ddH2O to 200 ml of 5×M9 salt solution, 20 ml of 20% glucose, 2 ml of 1.0 M MgSO4 and 0.1 ml of 1.0 M CaCl2 to make up to 1000 ml.
In the above, the E. coli used was double knockout E. coli, namely, EPSPS defective E. coli (E. coli DH5α with EPSPS gene and C-P Lyase gene being knocked out, named as EDCE, wherein for a preparation method thereof, reference can be made to a Chinese invention patent with the filing number CN2016103256926).
The glyphosate resistance of the soybean EPSPS mutant G4 provided in Example 3 and the soybean EPSPS mutant G5 provided in Example 4 was verified with reference to the detection method in Experiment Example 1.
The wild-type wheat EPSPS (with an amino acid sequence represented by SEQ ID NO: 14, and a corresponding encoding gene sequence represented by SEQ ID NO: 13) and the wheat EPSPS mutant T2 (with an amino acid sequence represented by SEQ ID NO: 18, and a corresponding encoding gene sequence represented by SEQ ID NO: 17) merely containing the mutation P118(101)S were taken as controls to verify the glyphosate resistance of the wheat EPSPS mutants T1 and T3 provided in Example 5 and Example 6, and reference can be made to Experiment Example 1 for the method.
A method for verifying the glyphosate resistance of the wheat EPSPS mutants T4, T5, and T6 provided in Examples 7-9 is the same as that in Experiment Example 3.
The wild-type rice EPSPS R0 (with an amino acid sequence represented by SEQ ID NO: 28, and a corresponding encoding gene sequence represented by SEQ ID NO: 27) and the rice EPSPS mutant R2 (with an amino acid sequence represented by SEQ ID NO: 32, and a corresponding encoding gene sequence represented by SEQ ID NO: 31) merely containing the mutation P116(101)S were taken as controls to verify the glyphosate resistance of the rice EPSPS mutants R1 and R3 provided in Examples 10 and 11, and reference can be made to Experiment Example 1 for the method. […]

[1] = culture media containing 0 mM glyphosate
[2] = culture media containing 1 mM glyphosate
[3] = culture media containing 5 mM glyphosate
[4] = culture media containing 10 mM glyphosate
[5] = culture media containing 20 mM glyphosate

B1: G0: wild-type soybean EPSPS, amino acid sequence SEQ ID NO: 2; control (protein)
chain: MAAAEKPSTAPEIVLEPIKDISGTITLPGSKSLSNRILLLAALSEGTTVVDNLLYSEDIHYMLGALRTLGLRVEDDQTTKQAIVEGCGGLFPTIKESKDEINLFLGNAGTAMRPLTAAVVAAGGNASYVLDGVPRMRERPIGDLVAGLKQLGADVDCFLGTNCPPVRVNGKGGLPGGKVKLSGSVSSQYLTALLMAAPLALGDVEIEIVDKLISVPYVEMTLKLMERFGVSVEHSGDWDKFLVHGGQKYKSPGNAFVEGDASSASYFLAGAAVTGGTITVNGCGTSSLQGDVKFAEVLEKMGAKVTWSENSVTVTGPPQDSSGQKVLQGIDVNMNKMPDVAMTLAVVALFANGQTTIRDVASWRVKETERMIAICTELRKLGATVEEGPDYCVITPPEKLNVTAIDTYDDHRMAMAFSLAACGDVPVTIKDPGCTRKTFPDYFEVLERFTRH
modifications: Glycine max
notes: control
**Q.** Which results are given for B1?
**A.** growth of the E. coli transformed by the EPSPS [1]: could grow; growth of the E. coli transformed by the EPSPS [2]: substantially could not grow; growth of the E. coli transformed by the EPSPS [3]: substantially could not grow

B2: G2: soybean EPSPS mutant, SEQ ID NO: 6, merely containing the mutation P114(101)S; control (protein)
chain: B1 chain with P114S
**Q.** With B2 as the molecule, how does the “growth of the E. coli transformed by the EPSPS” value (“growth … by the EPSPS” for short) [1] read?
**A.** could grow

**Q.** What about the “growth … by the EPSPS” value [4] of the same molecule?
**A.** could grow

**Q.** What about the “growth … by the EPSPS” value [5] of the same molecule?
**A.** could grow

B3: G3: soybean EPSPS mutant, SEQ ID NO: 8, mutations L212(195)P and P114(101)S (protein)
chain: B1 chain with P114S, L212P
**Q.** B3 was tested. Which “growth … by the EPSPS” value [1] did it give?
**A.** could grow

**Q.** And the “growth … by the EPSPS” value [5]?
**A.** could grow

**Q.** What about the “growth of the transformed E. coli compared with E. coli transformed by the control EPSPS named in the value” [5] of the same molecule?
**A.** superior to that of the E. coli transformed by the soybean EPSPS mutant G2

B4: G4: soybean EPSPS mutant, SEQ ID NO: 10, mutation S265(247)G (protein)
chain: B1 chain with S265G
**Q.** B4 was tested. Which “growth … by the EPSPS” value [1] did it give?
**A.** could grow

**Q.** And the “growth of the transformed E. coli compared with E. coli transformed by the control EPSPS named in the value” [3]?
**A.** superior to that of the E. coli transformed by G0

B5: G1: soybean EPSPS mutant, SEQ ID NO: 4, mutation L212(195)P (protein)
chain: B1 chain with L212P
**Q.** For B5, which “growth … by the EPSPS” value [1] is on record?
**A.** could grow

**Q.** What about the “growth of the transformed E. coli compared with E. coli transformed by the control EPSPS named in the value” [2] of the same molecule?
**A.** obviously superior to that of the E. coli transformed by G0

B6: G5: soybean EPSPS mutant, SEQ ID NO: 12, mutations S265(247)G and P114(101)S (protein)
chain: B1 chain with P114S, S265G
**Q.** With B6 as the molecule, how does the “growth … by the EPSPS” value [1] read?
**A.** could grow

**Q.** And the “growth … by the EPSPS” value [4]?
**A.** could grow

**Q.** And the “growth of the transformed E. coli compared with E. coli transformed by the control EPSPS named in the value” [4]?
**A.** obviously superior to that of the E. coli transformed by G2
